Earlier results on 15 substances are cited in publication PMC5840170.

Where two headings read alike, the source gives them in different places. Where only a bound is given, the exact number is not on record here.

The target in data set [1] is VPS4 MIT (Homo sapiens) (UniProt Q9UN37).
In a further data set the target is VPS4 (Homo sapiens) (UniProt Q9UN37).
The target in data set [2] is VPS4 MIT (Homo sapiens) (UniProt Q9UN37). The source holds these as a separate data set.
Data set [3] concerns the target EAP20 (Vps25) winged helix (wH) (Homo sapiens) (UniProt Q9BRG1).
The next data set concerns the target EAP20 (Homo sapiens) (UniProt Q9BRG1).
Data set [4] deals with VPS4 MIT (Homo sapiens) (UniProt Q9UN37). The source holds these as a separate data set.
Data set [5] deals with CdvB wH domain (Sulfolobus acidocaldarius) (UniProt Q4J924).
Sequence of CdvB wH domain (Sulfolobus acidocaldarius) (Q4J924 213-261): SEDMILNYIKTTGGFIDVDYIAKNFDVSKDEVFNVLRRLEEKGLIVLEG
The target is the same in data set [6]. This is another data set of the same source.
Data set [7] addresses CdvC MIT domain (Sulfolobus acidocaldarius) (UniProt F2Z6D2).
In data set [8] the target is CdvC MIT (Sulfolobus acidocaldarius) (UniProt F2Z6D2).
Sequence of CdvC MIT (Sulfolobus acidocaldarius) (F2Z6D2 8-76): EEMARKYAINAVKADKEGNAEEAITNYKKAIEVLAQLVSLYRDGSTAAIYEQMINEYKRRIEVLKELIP
Data set [9] deals with CdvC MIT domain (Sulfolobus acidocaldarius) (UniProt F2Z6D2). The source holds these as a separate data set.
Sequence of CdvC MIT domain (Sulfolobus acidocaldarius) (F2Z6D2 8-76): as above
In data set [10] the target is CdvC MIT (Sulfolobus acidocaldarius) (UniProt F2Z6D2). The source holds these as a separate data set.
Data set [11] deals with CdvC MIT domain (Sulfolobus acidocaldarius) (UniProt F2Z6D2). This is another data set of the same source.
For data set [12], the target named is Vps4 (Saccharomyces cerevisiae) (UniProt P52917).
Sequence of Vps4 (Saccharomyces cerevisiae) (P52917 whole entry): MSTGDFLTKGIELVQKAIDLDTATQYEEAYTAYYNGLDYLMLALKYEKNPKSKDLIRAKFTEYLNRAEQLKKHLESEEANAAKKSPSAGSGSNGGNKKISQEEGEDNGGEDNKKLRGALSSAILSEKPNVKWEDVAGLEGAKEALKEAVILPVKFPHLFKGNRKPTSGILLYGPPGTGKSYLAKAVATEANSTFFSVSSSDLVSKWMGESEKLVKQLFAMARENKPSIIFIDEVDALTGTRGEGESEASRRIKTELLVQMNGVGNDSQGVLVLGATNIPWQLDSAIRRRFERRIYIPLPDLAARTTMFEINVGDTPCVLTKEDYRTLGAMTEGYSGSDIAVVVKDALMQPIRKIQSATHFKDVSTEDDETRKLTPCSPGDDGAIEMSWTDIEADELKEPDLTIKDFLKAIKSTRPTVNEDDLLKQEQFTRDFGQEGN
The target of data set [13] is Vps4 MIT (Saccharomyces cerevisiae) (UniProt P52917).
Sequence of Vps4 MIT (Saccharomyces cerevisiae) (P52917 1-83): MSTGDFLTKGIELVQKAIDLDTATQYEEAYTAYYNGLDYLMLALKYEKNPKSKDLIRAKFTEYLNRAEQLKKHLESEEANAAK
The target of data set [14] is ESCRT-III subunit (Vps2) α5 helix (Saccharomyces cerevisiae) (UniProt P36108).
Sequence of ESCRT-III subunit (Vps2) α5 helix (Saccharomyces cerevisiae) (P36108 165-184): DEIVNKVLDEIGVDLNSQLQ

Sequence of VPS4 MIT (Homo sapiens) (Q9UN37 1-83): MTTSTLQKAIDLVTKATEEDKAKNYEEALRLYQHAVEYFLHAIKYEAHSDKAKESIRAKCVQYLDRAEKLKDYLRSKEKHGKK
Sequence of Vps2 MIM1 (P36108 211-232): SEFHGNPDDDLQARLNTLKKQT
Sequence of CHMP4 (Q9H444 2-224): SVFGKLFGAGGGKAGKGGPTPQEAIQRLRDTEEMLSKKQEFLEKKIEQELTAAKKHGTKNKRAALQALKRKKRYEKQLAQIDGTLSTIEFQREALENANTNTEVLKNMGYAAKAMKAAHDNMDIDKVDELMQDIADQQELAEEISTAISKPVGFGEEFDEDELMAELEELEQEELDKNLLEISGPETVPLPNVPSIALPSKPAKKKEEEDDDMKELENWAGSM
Sequence of CdvB1 C-terminus (Q4JBG6 195-214): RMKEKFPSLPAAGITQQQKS
Sequence of CHMP6 (Vps20) (Q96FZ7 2-201): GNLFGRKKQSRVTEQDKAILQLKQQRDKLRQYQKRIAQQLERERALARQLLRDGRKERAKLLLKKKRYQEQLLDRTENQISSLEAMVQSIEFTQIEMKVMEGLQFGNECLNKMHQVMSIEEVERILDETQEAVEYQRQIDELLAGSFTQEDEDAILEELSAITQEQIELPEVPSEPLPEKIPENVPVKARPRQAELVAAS
Sequence of CHMP6 (Q96FZ7 2-201): as above
Sequence of VPS4 (Homo sapiens) (Q9UN37 whole entry): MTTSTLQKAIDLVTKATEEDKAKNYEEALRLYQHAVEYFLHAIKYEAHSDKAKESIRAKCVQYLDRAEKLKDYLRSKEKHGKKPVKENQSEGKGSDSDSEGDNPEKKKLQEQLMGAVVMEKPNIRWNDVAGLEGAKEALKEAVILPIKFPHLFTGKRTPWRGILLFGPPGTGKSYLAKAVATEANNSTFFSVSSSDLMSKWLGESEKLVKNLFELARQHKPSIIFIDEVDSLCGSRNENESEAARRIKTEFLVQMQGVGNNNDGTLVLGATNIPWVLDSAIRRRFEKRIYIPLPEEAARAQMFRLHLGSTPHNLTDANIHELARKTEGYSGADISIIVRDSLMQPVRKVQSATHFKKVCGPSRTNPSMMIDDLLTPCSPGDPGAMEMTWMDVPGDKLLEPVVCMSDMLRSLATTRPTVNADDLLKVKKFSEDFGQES
Sequence of EAP20 (Homo sapiens) (Q9BRG1 whole entry): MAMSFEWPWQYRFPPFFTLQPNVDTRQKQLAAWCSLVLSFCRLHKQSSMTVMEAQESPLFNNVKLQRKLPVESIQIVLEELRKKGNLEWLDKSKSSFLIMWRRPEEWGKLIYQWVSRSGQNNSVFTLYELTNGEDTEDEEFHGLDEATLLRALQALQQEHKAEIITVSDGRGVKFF
Sequence of CdvB2 C-terminus (Q4J8Y4 200-219): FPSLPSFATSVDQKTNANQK
Sequence of CdvA E3B (Q4J923 216-238): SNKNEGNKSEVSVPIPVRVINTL
Sequence of CdvA E3B peptide (Q4J923 214-238): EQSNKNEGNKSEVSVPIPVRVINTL
Sequence of EAP20 (Vps25) winged helix (wH) (Homo sapiens) (Q9BRG1 102-176): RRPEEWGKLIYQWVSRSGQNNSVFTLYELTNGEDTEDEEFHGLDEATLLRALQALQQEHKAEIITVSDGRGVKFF
Sequence of Vps4 central pore loops (P52917 whole entry, looked up): as the sequence (P52917 whole entry) above
Sequence of Vps2 (P36108 whole entry): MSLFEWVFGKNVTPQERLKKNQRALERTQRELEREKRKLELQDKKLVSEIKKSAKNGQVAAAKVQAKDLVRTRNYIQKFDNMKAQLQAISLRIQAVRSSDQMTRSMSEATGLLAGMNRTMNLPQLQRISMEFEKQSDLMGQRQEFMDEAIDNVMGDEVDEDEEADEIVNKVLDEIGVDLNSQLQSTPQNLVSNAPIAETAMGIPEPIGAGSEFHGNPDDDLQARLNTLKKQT
Sequence of CdvB 177-261 (Q4J924 177-261): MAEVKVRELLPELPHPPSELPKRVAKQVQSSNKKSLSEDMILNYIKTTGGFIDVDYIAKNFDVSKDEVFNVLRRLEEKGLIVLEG

With CHMP1A MIM1 (from UniProt Q9HD42), the Kd with VPS4 MIT (Homo sapiens) [1] and with VPS4 (Homo sapiens) was 4.5 µM in each case.

Turning to CHMP4 (from UniProt Q9H444), the Kd with VPS4 MIT (Homo sapiens) [2] was over 100 µM.

In the case of CHMP6 (Vps20) (from UniProt Q96FZ7), the Kd in data set [3] was 7 µM.

Take CHMP6 (from UniProt Q96FZ7): in the data set with EAP20 (Homo sapiens), the Kd is 7 µM.

CHMP6 MIM2 (from UniProt Q96FZ7): the Kd with VPS4 MIT (Homo sapiens) [4] was 30 µM.

Regarding CdvA E3B (from UniProt Q4J923), the Kd in data set [5] was 6 µM.

CdvA E3B peptide (from UniProt Q4J923): the Kd in data set [6] was 6 µM.

With CdvB1 C-terminus (from UniProt Q4JBG6), the Kd in data set [7] is over 100 µM.

In the case of “CdvB1 C-terminus peptide (from UniProt Q4JBG6)”, the Kd in [8] is over 100 µM.

With CdvB2 C-terminus (from UniProt Q4J8Y4), the Kd in [9] is over 100 µM.

For “CdvB2 C-terminus peptide (from UniProt Q4J8Y4)”, in [10], the Kd was over 100 µM.

As for CdvB 177-261 (from UniProt Q4J924), the Kd in data set [11] is 30 µM.

Regarding Vps2 (from UniProt P36108), the Kd in [12] is 30 µM.

In the case of Vps2 MIM1 (from UniProt P36108), the Kd in [13] is 30 µM.

For “Vps4 central pore loops (from UniProt P52917)”, the Kd in [14] is 2 µM.

Broadly, the Kd is the constant that tells how readily two partners part at equilibrium.
